Test results published in patent US20250152742A1, “COMPOSITIONS AND METHODS FOR NEUROLOGICAL DISEASES” (Trames Bio, Inc., priority 2022, published 2025).

System: engineered chimeric receptor SEQ ID NO: 33 and its mutants (human α7-nAChR ligand binding domain / human GlyRα1 ion pore domain) in Lenti-X 293T cells
Test: YFP fluorescence quenching anion reporter plate reader assay (percent quench, EC50)
Type: cell-based
Settings: for YFP fluorescence quenching using CNL001 (percent quench): receptor named in row; for YFP fluorescence quenching using Varenicline, 3 nM var: ligand Varenicline 3 nM; for YFP fluorescence quenching using Varenicline, 30 nM var: ligand Varenicline 30 nM; for YFP fluorescence quenching using Varenicline, 300 nM var: ligand Varenicline 300 nM; for YFP fluorescence quenching using Varenicline, 500 nM var: ligand Varenicline 500 nM; for YFP fluorescence quenching using Varenicline, 1 uM var: ligand Varenicline 1 uM
Method in brief: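 Lenti-X 293T cells co-expressing an anion-quenchable YFP were transiently transfected with receptor DNA, then ligand was added in NaI-substituted buffer (pH 7.2) after 30 min at 37 °C. Fluorescence was read about 2 min; percent quench = mean of last 10 s over 15 s pre-ligand baseline.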

B1: CODA71: parental chimeric LGIC: human α7-nAChR ligand binding domain with GlyRα1 Cys-loop fused to human GlyRα1 ion pore domain (protein)
chain: MRCSPGGVWLALAASLLHVSLQGEFQRKLYKELVKNYNPLERPVANDSQPLTVYFSLSLLQIMDVDEKNQVLTTNIWLQMSWTDHYLQWNVSEYPGVKTVRFPDGQIWKPDILLYNSADERFDATFHTNVLVNSSGHCQYLPPGIFKSSCPMDLKNFPMDVQTCKLKFGSWSYGGWSLDLQMQEADISGYIPNGEWDLVGIPGKRSERFYECCKEPYPDVTFTVTMRRRMGYYLIQMYIPSLLIVILSWISFWINMDAAPARVGLGITTVLTMTTQSSGSRASLPKVSYVKAIDIWMAVCLLFVFSALLEYAAVNFVSRQHKELLRFRRKRRHHKSPMLNLFQEDEAGEGRFNFSAYGMGPACLQAKDGISVKGANNSNTTNPPPAPSKSPEEMRKLFIQRAKKIDKISRIGFPMAFLIFNMFYWIIYKIVRREDVHNQ
modifications: synthetic sequence of chimeric LGIC
1 nM CNL001, first column so headed
  YFP fluorescence quenching using CNL001 (percent quench): 3.727%
1 nM CNL001, second column so headed
  YFP fluorescence quenching using CNL001 (percent quench): 20.231%
1 nM brd (TC-5619/Bradanicline)
  YFP fluorescence quenching using TC-5619/Bradanicline (percent quench): 9.41%
3 nM brd (TC-5619/Bradanicline)
  YFP fluorescence quenching using TC-5619/Bradanicline (percent quench): 44.38%
10 nM CNL001, first column so headed
  YFP fluorescence quenching using CNL001 (percent quench): 81.096%
10 nM CNL001, second column so headed
  YFP fluorescence quenching using CNL001 (percent quench): 82.368%
10 nM brd (TC-5619/Bradanicline)
  YFP fluorescence quenching using TC-5619/Bradanicline (percent quench): 76.61%
30 nM TC-6683
  YFP fluorescence quenching using TC-6683 (percent quench): −14.43%
30 nM brd (TC-5619/Bradanicline)
  YFP fluorescence quenching using TC-5619/Bradanicline (percent quench): 70.23%
50 nM CNL001, first column so headed
  YFP fluorescence quenching using CNL001 (percent quench): 83.62%
50 nM CNL001, second column so headed
  YFP fluorescence quenching using CNL001 (percent quench): 84.482%
50 nM abt (ABT-126)
  YFP fluorescence quenching using ABT-126 (percent quench): −1.98%
100 nM CNL001, first column so headed
  YFP fluorescence quenching using CNL001 (percent quench): 84.297%
100 nM CNL001, second column so headed
  YFP fluorescence quenching using CNL001 (percent quench): 85.368%
100 nM CNL002
  YFP fluorescence quenching (percent quench): 49.61%
100 nM abt (ABT-126)
  YFP fluorescence quenching using ABT-126 (percent quench): 24.27%
100 nM azd0328
  YFP fluorescence quenching using AZD-0328 (percent quench): 73.59%
100 nM brd (TC-5619/Bradanicline)
  YFP fluorescence quenching using TC-5619/Bradanicline (percent quench): 78.62%
300 nM TC-6683
  YFP fluorescence quenching using TC-6683 (percent quench): −13.08%
300 nM abt (ABT-126)
  YFP fluorescence quenching using ABT-126 (percent quench): 56.8%
300 nM azd0328
  YFP fluorescence quenching using AZD-0328 (percent quench): 78.09%
300 nM brd (TC-5619/Bradanicline)
  YFP fluorescence quenching using TC-5619/Bradanicline (percent quench): 75.51%
500 nM abt (ABT-126)
  YFP fluorescence quenching using ABT-126 (percent quench): 76.28%
1 uM CNL001, first column so headed
  YFP fluorescence quenching using CNL001 (percent quench): 85.647%
1 uM CNL001, second column so headed
  YFP fluorescence quenching using CNL001 (percent quench): 86.358%
1 uM CNL002
  YFP fluorescence quenching (percent quench): 74.15%
1 uM abt (ABT-126)
  YFP fluorescence quenching using ABT-126 (percent quench): 73.16%
3 uM TC-6683
  YFP fluorescence quenching using TC-6683 (percent quench): −13.71%
3 uM abt (ABT-126)
  YFP fluorescence quenching using ABT-126 (percent quench): 70.98%
10 uM abt (ABT-126)
  YFP fluorescence quenching using ABT-126 (percent quench): 72.62%
10 uM ach (acetylcholine)
  YFP fluorescence quenching (percent quench): 15.61%
30 uM CNL002
  YFP fluorescence quenching (percent quench): 75.21%
30 uM TC-6683
  YFP fluorescence quenching using TC-6683 (percent quench): −14.02%
30 uM abt (ABT-126)
  YFP fluorescence quenching using ABT-126 (percent quench): 77.49%
30 uM ach (acetylcholine)
  YFP fluorescence quenching (percent quench): 63.31%
30 uM azd0328
  YFP fluorescence quenching using AZD-0328 (percent quench): 79.05%
50 uM abt (ABT-126)
  YFP fluorescence quenching using ABT-126 (percent quench): 77.96%
50 uM ach (acetylcholine)
  YFP fluorescence quenching (percent quench): 73.16%
100 uM TC-6683
  YFP fluorescence quenching using TC-6683 (percent quench): −8.77%
100 uM abt (ABT-126)
  YFP fluorescence quenching using ABT-126 (percent quench): 77.81%
100 uM ach (acetylcholine)
  YFP fluorescence quenching (percent quench): 74.94%
300 uM ach (acetylcholine)
  YFP fluorescence quenching (percent quench): 65.94%
500 uM ach (acetylcholine)
  YFP fluorescence quenching (percent quench): 62.78%
1 mM ach (acetylcholine)
  YFP fluorescence quenching (percent quench): 74.24%
3 mM ach (acetylcholine)
  YFP fluorescence quenching (percent quench): 76.27%
5 mM ach (acetylcholine)
  YFP fluorescence quenching (percent quench): 77.15%
10 mM ach (acetylcholine)
  YFP fluorescence quenching (percent quench): 77.96%
Ligand Facinicline 30 nM
  YFP fluorescence quenching using Facinicline, 30 nM fac: 53.42
Ligand Facinicline 100 nM
  YFP fluorescence quenching using Facinicline, 100 nM fac: 83.6
Ligand Facinicline 300 nM
  YFP fluorescence quenching using Facinicline, 300 nM fac: 77.44
Ligand Facinicline 30 uM
  YFP fluorescence quenching using Facinicline, 30 uM fac: 79.62
Ligand TC-6987 1 uM
  YFP fluorescence quenching using TC-6987, 1 uM tc6987: 31.56
Ligand TC-6987 3 uM
  YFP fluorescence quenching using TC-6987, 3 uM tc6987: 31.82
Ligand TC-6987 5 uM
  YFP fluorescence quenching using TC-6987, 5 uM tc6987: 30.75
Ligand TC-6987 10 uM
  YFP fluorescence quenching using TC-6987, 10 uM tc6987: 56.68
Ligand TC-6987 30 uM
  YFP fluorescence quenching using TC-6987, 30 uM tc6987: 51.46
Ligand TC-6987 50 uM
  YFP fluorescence quenching using TC-6987, 50 uM tc6987: 61.26
Ligand TC-6987 100 uM
  YFP fluorescence quenching using TC-6987, 100 uM tc6987: 43.21
Ligand TC-6987 300 uM
  YFP fluorescence quenching using TC-6987, 300 uM tc6987: 7.79
Ligand TC-6987 500 uM
  YFP fluorescence quenching using TC-6987, 500 uM tc6987: 51.58
First column
  YFP fluorescence quenching using Varenicline, 3 nM var: −2.36
  YFP fluorescence quenching using Varenicline, 30 nM var: −4.255
  YFP fluorescence quenching using Varenicline, 300 nM var: 46.195
  YFP fluorescence quenching using Varenicline, 500 nM var: 69.253
  YFP fluorescence quenching using Varenicline, 1 uM var: 79.254
Second column
  YFP fluorescence quenching using Varenicline, 3 nM var: −3.522
  YFP fluorescence quenching using Varenicline, 30 nM var: −3.636
  YFP fluorescence quenching using Varenicline, 300 nM var: 45.522
  YFP fluorescence quenching using Varenicline, 500 nM var: 71.705
  YFP fluorescence quenching using Varenicline, 1 uM var: 79.244
